How the values were obtained:
GOLPH3-4G = target: T1, GOLPH3-4G (Homo sapiens, UniProt Q9H4A6, F194G/F197G/L195G/L196G); experiment: NMR 1H-15N HSQC titration of LCS tail peptide into 15N-labeled GOLPH3-4G; format: binding; conditions: final LCS titration point, MES pH 6.5, 250 mM NaCl, 308K
T1 construct: 10xHistidine tag (N, cleaved yes); Twin-Strep-tag (N, cleaved yes); made in house; host or cells: E. coli BL21(DE3)
Description: (§1) Supplemental Material for Theodoropoulou, Nasrallah, et al 2026 buffer. Pooled fractions were concentrated to the required concentration using a MWCO concentrator (Millipore) with a cutoff of 10 kDa.
(§2) Size exclusion chromatography coupled to multi-angle light scattering
(§3) The molecular weights of the tested constructs were determined by size exclusion chromatography coupled to multi-angle light scattering (SEC-MALS). The mass measurements were performed on a UltiMate3000 HPLC system equipped with a 3 angles miniDAWN TREOS static light scattering detector (Wyatt Technology). The sample volumes of 5−10 μl at a concentration of 12 mg/mL, were applied to a Superdex 200 5/150 GL column (Cytiva) previously equilibrated with 250 mM NaCl, 50 mM Tris pH 8.0, 1 mM TCEP at a flow rate of 0.08 mL/min. The data were analyzed using the ASTRA 6.1 software package (Wyatt technology), using the absorbance at 280 nm and the theoretical extinction coefficient for concentration measurements.
(§4) Nuclear Magnetic Resonance (NMR) Spectroscopy
All proteins used for NMR experiments were designed on the GOLPH3-4G background due […]
Recombinant proteins were prepared with the isotope enrichment scheme appropriate for each experiment (i.e. 15N-only or 15N, 13C) in 20 mM MES […]
buffer pH 6.5 with 250 mM NaCl and 10% 2H2O.
Protein concentrations were around 300 µM for all NMR experiments, […]
spectrometer equipped with a CPTC 1H, 13C, 15N 5 mm cryoprobe and an Avance Neo console.
CA, and C) and CB resonances were assigned using a standard procedure based on conventional 3D HNCA, HN(CO)CA, HNCO, HN(CA)CO, CBCA(CO)NH and HNCACB spectra. All spectra were acquired and processed using Bruker’s Topspin 4.0 software.
Backbone assignments were obtained through manual spectral analysis assisted by the […]
spectra acquired on single-point mutants. […]
residues are provided in Table S1 and deposited in the BMRB under ID 53516.

[1] = CD secondary structure of GOLPH3 proteins (BestSel fits); format: physicochemical, human; conditions: 10 μM, 100 mM NaCl, 50 mM Tris pH 7.4, 1 mM TCEP, 20 °C
Description: (§5) Supplemental Material for Theodoropoulou, Nasrallah, et al 2026
Isothermal titration calorimetry […]
(§6) Circular Dichroism Spectroscopy
(§7) Circular Dichroism Spectra of GOLPH3 proteins (at 10 μM in 100 mM NaCl, 50 mM Tris pH 7.4 and 1 mM TCEP) were collected with a Chirascan V100 (AppliedPhotophysics), using a 1 mm path length cuvette, at 20 °C, in the 200-260 nm range. Thermal denaturation experiments […]
(§8) every 1 °C, with a temperature ramp speed of 1 °C/min and an equilibration time of […]
(§9) Table S2: Fits of CD spectra to fractions of secondary structure for Golph3 WT and various mutants of it, carried out with the BestSel server

[2] = SEC-MALS of GOLPH3 constructs; format: physicochemical, human; conditions: 12 mg/mL, 250 mM NaCl, 50 mM Tris pH 8.0, 1 mM TCEP
Description: as §1, §2, §3, §4
All proteins used for NMR experiments were designed on the GOLPH3-4G background due to its higher stability and solubility. Recombinant proteins were prepared with the isotope enrichment scheme appropriate for each experiment (i.e. 15N-only or 15N, 13C) in 20 mM MES buffer pH 6.5 with 250 mM NaCl and 10% 2H2O. Lower salt, even by 10%, yielded much degraded spectra. […]

[3] = CD thermal denaturation of GOLPH3 proteins; format: physicochemical, human; conditions: CD at 207 nm, 20 to 95 °C at 1 °C/min, 10 μM protein, 100 mM NaCl, 50 mM Tris pH 7.4, 1 mM TCEP
Description: as §5
Isothermal titration calorimetry
Isothermal titration calorimetry (ITC) experiments were performed on a MicroCal PEAQ-ITC (Malvern Panalytical), with GOLPH3 variants being in a buffer containing 250 mM NaCl, 50 mM Tris pH 8.0 and 1 mM TCEP. LCS peptides were synthesised and delivered as lyophilised powder (Genscript). The peptides were dissolved in the protein buffer and their concentrations were calculated based upon their absorbance at 280 nm and their corresponding molar extinction coefficient. Experiments consisted of titrations of a single 0.4 µL injection followed […]
GOLPH3 proteins at a 100 μM concentration. Experiments were performed at 25 °C in triplicate (n = 3), with injection duration of 4 s, injection spacing of 150 s, stir speed of 750 rpm, and reference power of 7 μcal/s. Data were processed and plotted using MicroCal PEAQ‐ITC Analysis Software and fitted to a one‐site binding model.
as §6, §7, §8, §9

chemical shift perturbation, A245 (GOLPH3-4G): 0.023 p.p.m | chemical shift perturbation, A294 (GOLPH3-4G): 0.02332 p.p.m | chemical shift perturbation, D247 (GOLPH3-4G): 0.05478 p.p.m | chemical shift perturbation, D258 (GOLPH3-4G): 0.09666 p.p.m | chemical shift perturbation, E259 (GOLPH3-4G): 0.06997 p.p.m | chemical shift perturbation, H202 (GOLPH3-4G): 0 p.p.m | chemical shift perturbation, K266 (GOLPH3-4G): 0.1082 p.p.m | chemical shift perturbation, K298 (GOLPH3-4G): 0.09652 p.p.m | chemical shift perturbation, Q260 (GOLPH3-4G): 0.1208 p.p.m | chemical shift perturbation, S246 (GOLPH3-4G): 0.08006 p.p.m | chemical shift perturbation, T200 (GOLPH3-4G): 0 p.p.m | chemical shift perturbation, T201 (GOLPH3-4G): 0 p.p.m | chemical shift perturbation, T265 (GOLPH3-4G): 0.1157 p.p.m | chemical shift perturbation, T297 (GOLPH3-4G): 0.1247 p.p.m | chemical shift perturbation, Y261 (GOLPH3-4G): 0.1039 p.p.m
B1: GOLPH3-4G: mutant F194G/L195G/L196G/F197G with improved solubility (protein)
chain: MTSLTQRSSGLVQRRTEASRNAADKERAAGGGAGSSEDDAQSRRDEQDDDDKGDSKETRLTLMEEVLLLGLKDREGYTSFWNDCISSGLRGCMLIELALRGRLQLEACGMRRKSLLTRKVICKSDAPTGDVLLDEALKHVKETQPPETVQNWIELLSGETWNPLKLHYQLRNVRERLAKNLVEKGVLTTEKQNGGGGDMTTHPLTNNNIKQRLIKKVQEAVLDKWVNDPHRMDRRLLALIYLAHASDVLENAFAPLLDEQYDLATKRVRQLLDLDPEVECLKANTNEVLWAVVAAFTK
% alpha [1]: 36% | % beta parallel [1]: 0% | % beta-antiparallel [1]: 13% | % others [1]: 36% | % turn [1]: 15% | oligomeric state [2]: monomeric | Tm / melting temperature [3]: 55 °C
